In publication PMC7659345, “Viral rhodopsins 1 are an unique family of light-gated cation channels” (Nature Communications, 2020):

Key:
Asp76 (position 76, …) = assay: UV-vis; details: 10 mM citrate, 10 mM MES, 10 mM HEPES, 10 mM MOPS, 10 mM CHES and 10 mM CAPS. The pH was adjusted with HCl or NaOH in steps of 0.5-0.7 units.; Dark (ground) state with all-trans retinal bound; purified, solubilised protein
Asp80 (position 80, …) = assay: UV-vis; details: 10 mM citrate, 10 mM MES, 10 mM HEPES, 10 mM MOPS, 10 mM CHES and 10 mM CAPS. The pH was adjusted with HCl or NaOH in steps of 0.5-0.7 units.; Dark (ground) state with all-trans retinal bound; purified, solubilised protein

Row | Protein | pKa (Asp76 (position 76, …)) | pKa (Asp80 (position 80, …))
1 | OLPVR1 (viral rhodopsin group 1, viral channelrhodopsin) (Organic Lake phycodnavirus) (protein) MDNIIMTAYISIFVQIITAIISVYGLFIPLNFKDIILREILILELIVQIIEFIFYIWLIITLQSINEDITYVRYFDWVLTTPVMLLTTVYFFEYMNSDDGIRKKEINDRDYVYLFYICLSNFFMLLIGYLGETKQINKMLTLFGGSFFLFLTFYLLYVKYTKENWMNYIVFYFMFLVWFLYGFAFMFPFSIKNQMYNILDIVSKNIYSIFIFIVILNQSYKLL | 4.8 | 
2 | VirChR1 (viral channelrhodopsin 1, viral rhodopsin group 1) (uncultured virus (Tara Oceans metagenomic contig TARA-146-SRF-0.22-3-C376786_1)) (protein) MKDKELLLLTVKISLVVQIISGIVSSFGIFIKLAPKDYILRDILIIETVVQIVEAIFYVYIYLSLESLDNNVITSRRYFDWVITTPIMLISTILFMRYNIRILYDKSKNKQNRQNKPKSNLTTYNVIKNNKDTIIKIVIGNFIMLCFGYLGEVDILSKTISIPIGFIFFFYVFYLIWREFGSYTQQNQILFWVLFIVWGLYGVSACLPVLQKNICYNILDIISKNFYGLYIFYYIYQHRLVV |  | 3.5
